Experimental data taken from patent US8217161B2, “Methods of inhibiting multiple cytochrome P450 genes with siRNA” (Clemson University Research Foundation, priority 2008, dated 2012).
Read-outs that look alike come from different tables or passages of the source.

B1: Cyp2b-KD2: lentiviral shRNA construct targeting mouse Cyp2b subfamily; siRNA sequence AAGAACACTGAGGTGTACCCC (nucleic acid)
DNA: GGATCCCAAGAACACTGAGGTGTACCCCTTGATATCCGGGGGTACACCTCAGTGTTCTTTTTTTTCCAACTCGAG
B2: scrambled-shRNA: control shRNA construct with scrambled sequence that does not recognize any murine mRNAs (nucleic acid)
chain: GGATCCCGACGATTCGAGGCGCAGTGATTTGATATCCGATCACTGCTCCTCGAATCGTCTTTTTTCCAACTCGAG
B3: Cyp2b-KD3: lentiviral shRNA construct targeting mouse Cyp2b subfamily; siRNA sequence CAGGAAAGCGCATTTGTCTTG (nucleic acid)
DNA: GGATCCCGCAAGACAAATGCGCTTTCCTGTTGATATCCGCAGGAAAGCGCATTTGTCTTGTTTTTTCCAACTCGAG

Tests used:
Cyp2b-knockdown mice [1] = settings: 75 mg/kg ip, observed 30 minutes
Method: Strychnine: Strychnine is a Cyp2b-inducer (Oguri et al., Arch. Biochem. Biophys. 287:105 (1991); Yamada et al., Arch. Biochem. Biophys. 299:248 (1992)) and therefore a potential CAR agonist. Strychnine is administered ip (75 mg/kg in saline) and observed for 30 minutes. Latency time to the first convulsions and number of animals showing convulsion is noted. […] Statistical analysis is performed using Fisher's 2×2 tests.

Cyp2b-knockdown mice [2] = assay: Chlorpyrifos toxicity in Cyp2b-knockdown mice; type: in vivo, mouse; settings: 10 mg/kg ip
Method: Chlorpyrifos: Similar to parathion, chlorpyrifos is an organophosphate insecticide that activates CAR, but chlorpyrifos is more toxic to wild-type mice. Initial toxicity is outwardly shown by mucous discharge from the eyes and later by reduced activity or complete lethargy, similar to other acetylcholinesterase inhibitors. Mice are injected ip with 10 mg/kg of chlorpyrifos and watched for behavioral changes. Mice showing toxicity are immediately euthanized to avoid unnecessary distress or pain. Statistical differences are determined using a Fisher's 2×2 test (StatView®, SAS Institute, Cary, N.C.).

Cyp2b-knockdown mice [3] = settings: mouse, in vivo
Cyp2b9 mRNA = assay: Q-PCR of Cyp2b9 mRNA in TCPOBOP-induced primary mouse hepatocytes transduced with lentiviral shRNA constructs; type: cell-based
Method: (§1) Q-PCR is performed to determine the efficacy of shRNA knockdown of the Cyp2b gene subfamily. Total RNA is isolated using a modified guanidinium thiocyanate-phenol-chloroform extraction protocol with TRI-reagent (Sigma, St. Louis, Mo.) according to the manufacturer's specifications followed by DNAse (Promega Corporation, Madison Wis.) treatment to remove residual genomic DNA. RNA is quantified spectrophotometrically and stored at −80° C. Reverse transcription is performed to create cDNA using MMLV-RT, a dNTP mixture, and random decamers. cDNA is stored at −20° C. Q-PCR is performed as described previously (Roling et al., Mar. Environ. Res. 57:377 (2004)). Briefly, to generate a standard curve and determine PCR efficiency, cDNA is combined and a 2×, 1:1, 1:10, 1:100, and 1:1000 dilution made. […] Amplifications are performed in triplicate using a 96-well MyiQ™ Real-Time PCR Detection System (Bio-Rad) with 0.25× SybrGreen as the fluorescent double strand-intercalating agent to quantify gene expression. The advantage of Q-PCR is having enough material to investigate a decrease of several Cyp2b isoforms as well as confirm that other P450 subfamilies are unaffected (Cyp3a, 2c).
(§2) Q-PCR results are normalized to the expression of the two housekeeping genes, β-Actin and 18S rRNA. A minimum of forty cycles is run on all real time samples to ensure a log based growth curve. Quantification is done by taking the efficiency curve of the Q-PCR reaction to the power of the threshold cycle (Ct). Samples are normalized to reference genes (β-actin and 18S rRNA) quantified for each sample. The formula for calculating normalized gene expression is NE={Eref}^Ct-ref/{Etarget}^Ct-target where NE is normalized gene expression, E is the efficiency of amplification for a particular gene, Ct is the threshold cycle, ref is the housekeeping gene (β-actin and 18S rRNA), and target is the gene of interest (Muller et al., Biotechniques 32:1372 (2002)).
(§3) The efficacy of the Cyp2b-KD2 and Cyp2b-KD3 lentiviral constructs to repress the expression of the Cyp2b subfamily members, Cyp2b9 and Cyp2b10 was tested using primary mouse hepatocytes. Primary mouse hepatocytes were plated in 6-well plates, treated with the CAR activator TCPOBOP to induce Cyp2b subfamily members (especially Cyp2b10) and then infected with either scrambled, Cyp2b-KD2 or Cyp2b-KD3 at a multiplicity of infection (MOI) of 20 and/or 5. The percentage of cells infected based on the presence of green fluorescence using fluorescent microscopy was approximately 65-80+% in KD2 transduced cells at a MOI of 5 and a about 55-70% in KD3 transduced cells at a MOI of 5.

[4] = tested on: primary mouse hepatocytes; assay: Percentage of cells infected, by green fluorescence microscopy; type: cell-based; settings: MOI of 5
Method: as §3

Cyp2b10 mRNA = assay: Q-PCR of Cyp2b10 mRNA in TCPOBOP-induced primary mouse hepatocytes transduced with lentiviral shRNA constructs; type: cell-based; settings: for reduction of Cyp2b10 expression: MOI 20 and/or 5, vs scrambled lentivirus
Method: as §1, §2, §3

[5] = TCPOBOP-treated primary mouse hepatocytes

Molecule	Cyp2b9 expression relative to cells treated with the scrambled shRNA (in words) (Cyp2b9 mRNA)	percentage of cells infected based on green fluorescence [4]	Cyp2b10 expression relative to cells treated with the scrambled shRNA (in words) (Cyp2b10 mRNA)	reduction of Cyp2b10 expression (Cyp2b10 mRNA; [5])	also measured
O=C1C[C@@H]2OCC=C3CN4CC[C@]56c7ccccc7N1[C@H]5[C@H]2[C@H]3C[C@H]46 [strychnine]					protection from convulsions (Cyp2b-knockdown mice [1]): protection
CCOP(=S)(OCC)Oc1nc(Cl)c(Cl)cc1Cl [chlorpyrifos]					sensitivity as compared to wild-type mice (Cyp2b-knockdown mice [2]): decreased sensitivity
CC(=O)Nc1ccc(O)cc1 [acetaminophen]					toxicity in TCPOBOP-treated mice (Cyp2b-knockdown mice [3]): greatest amount of toxicity
B1	reduced	65-80%	reduced	75-98%	reduction of Cyp2b9 expression (Cyp2b9 mRNA; TCPOBOP-treated primary mouse hepatocytes, MOI 20 and/or 5, vs scrambled lentivirus): 75-98%
B2					Cyp2b9 expression relative to uninfected cells (in words) (Cyp2b9 mRNA; [5]): did not reduce; Cyp2b10 expression relative to uninfected cells (in words) (Cyp2b10 mRNA; [5]): did not reduce
B3	not reduced	55-70%	only KD2 reduced	50%	Cyp2b9 expression relative to cells treated with the scrambled shRNA (in words) (Cyp2b9 mRNA; listed as KD3): reduced
